Data taken from patent US20230114801A1 (SYSTIMMUNE, published 2023).

B1: SI-75X4 (other)
chain 1: EVQLQESGGGLVQAGDSLSLSCLVSGRSFNSYTMGWFRQAPGKEREFVAAILWSGPTTYYADSVKGRFTISRDNAKNTVYLQMNSLKPEDTAVYYCAAALGVLVLAPGNVYSYWGQGTQVTVSSGGGGSGGGGSEVQLVESGGGLVQPGGSLRLSCAASGFTISTNAMSWVRQAPGKGLEWIGVITGRDITYYASWAKGRFTISRDNSKNTLYLQMSSLRSEDTAVYYCARDGGSSAITSNNIWGQGTLVTVSSASTKGPSVFPLAPSSKSTSGGTAALGCLVKDYFPEPVTVSWNSGALTSGVHTFPAVLQSSGLYSLSSVVTVPSSSLGTQTYICNVNHKPSNTKVDKRVEPKSCDKTHTCPPCPAPEAAGGPSVFLFPPKPKDTLMISRTPEVTCVVVDVSHEDPEVKFNWYVDGVEVHNAKTKPREEQYNSTYRVVSVLTVLHQDWLNGKEYKCAVSNKALPAPIEKTISKAKGQPREPQVYTLPPSRDELTKNQVSLSCAVKGFYPSDIAVEWESNGQPENNYKTTPPVLDSDGSFFLVSKLTVDKSRWQQGNVFSCSVMHEALHNHYTQKSLSLSPG
chain 2: QVQLVQSGGGLVQAGGSLSLSCAFSGRTFSMYTMGWFRQAPGKEREFVAANRGRGLSPDIADSVNGRFTISRDNAKNTLYLQMDSLKPEDTAVYYCAADLQYGSSWPQRSSAEYDYWGQGTTVTVSSGGGGSGGGGSDVVMTQSPSTLSASVGDRVTINCQASESISSWLAWYQQKPGKAPKLLIYEASKLASGVPSRFSGSGSGTEFTLTISSLQPDDFATYYCQGYFYFISRTYVNSFGGGTKVEIKRTVAAPSVFIFPPSDEQLKSGTASVVCLLNNFYPREAKVQWKVDNALQSGNSQESVTEQDSKDSTYSLSSTLTLSKADYEKHKVYACEVTHQGLSSPVTKSFNRGECGGDKTHTCPPCPAPEAAGGPSVFLFPPKPKDTLMISRTPEVTCVVVDVSHEDPEVKFNWYVDGVEVHNAKTKPREEQYNSTYRVVSVLTVLHQDWLNGKEYKCAVSNKALPAPIEKTISKAKGQPREPQVYTLPPSRDELTKNQVSLWCLVKGFYPSDIAVEWESNGQPENNYKTTPPVLDSDGSFFLYSKLTVDKSRWQQGNVFSCSVMHEALHNRFTQKSLSLSPG
notes: tri-miniGNC; D1 αEGFR VHH, D2 αHER3 VHH, D3 αCD3 (Fab)
B2: SI-75X19 (other)
chain 1: QVQLQESGGRLVQPGEPLSLTCKTSGIDLSSNAIGWVRQAPGKGLEWIGVIFGSGNTYYASWAKGRFTISRSTSTVYLKMNSLRSEDTAIYYCARGGYSSDIWGQGTLVTVSSASTKGPSVFPLAPSSKSTSGGTAALGCLVKDYFPEPVTVSWNSGALTSGVHTFPAVLQSSGLYSLSSVVTVPSSSLGTQTYICNVNHKPSNTKVDKRVEPKSCDKTHTCPPCPAPEAAGGPSVFLFPPKPKDTLMISRTPEVTCVVVDVSHEDPEVKFNWYVDGVEVHNAKTKPREEQYNSTYRVVSVLTVLHQDWLNGKEYKCAVSNKALPAPIEKTISKAKGQPREPQVYTLPPSRDELTKNQVSLSCAVKGFYPSDIAVEWESNGQPENNYKTTPPVLDSDGSFFLVSKLTVDKSRWQQGNVFSCSVMHEALHNHYTQKSLSLSPGGGGGSGGGGSEVQLQESGGGLVQAGDSLSLSCLVSGRSFNSYTMGWFRQAPGKEREFVAAILWSGPTTYYADSVKGRFTISRDNAKNTVYLQMNSLKPEDTAVYYCAAALGVLVLAPGNVYSYWGQGTQVTVSS
chain 2: DPQLTQSPSSLSATVGQRVTINCQSSQSVAKNNNLAWFQQKPGKPPKLLIYSASTLAAGVPSRFSGSGSGTQFTLTITRVQSEDFATYYCSARDSGNIQSFGGGTRVEIKRTVAAPSVFIFPPSDEQLKSGTASVVCLLNNFYPREAKVQWKVDNALQSGNSQESVTEQDSKDSTYSLSSTLTLSKADYEKHKVYACEVTHQGLSSPVTKSFNRGECGGDKTHTCPPCPAPEAAGGPSVFLFPPKPKDTLMISRTPEVTCVVVDVSHEDPEVKFNWYVDGVEVHNAKTKPREEQYNSTYRVVSVLTVLHQDWLNGKEYKCAVSNKALPAPIEKTISKAKGQPREPQVYTLPPSRDELTKNQVSLWCLVKGFYPSDIAVEWESNGQPENNYKTTPPVLDSDGSFFLYSKLTVDKSRWQQGNVFSCSVMHEALHNRFTQKSLSLSPGGGGGSGGGGSQVQLVQSGGGLVQAGGSLSLSCAFSGRTFSMYTMGWFRQAPGKEREFVAANRGRGLSPDIADSVNGRFTISRDNAKNTLYLQMDSLKPEDTAVYYCAADLQYGSSWPQRSSAEYDYWGQGTTVTVSS
notes: tri-miniGNC; D3 αCD3* (Fab), D4 αEGFR VHH, D5 αHER3 VHH
B3: SI-75X15 (bispecific antibody, human IgG1, kappa, L234A L235A)
chain 1: QVQLQESGGRLVQPGEPLSLTCKTSGIDLSSNAIGWVRQAPGKGLEWIGVIFGSGNTYYASWAKGRFTISRSTSTVYLKMNSLRSEDTAIYYCARGGYSSDIWGQGTLVTVSSASTKGPSVFPLAPSSKSTSGGTAALGCLVKDYFPEPVTVSWNSGALTSGVHTFPAVLQSSGLYSLSSVVTVPSSSLGTQTYICNVNHKPSNTKVDKRVEPKSCDKTHTCPPCPAPEAAGGPSVFLFPPKPKDTLMISRTPEVTCVVVDVSHEDPEVKFNWYVDGVEVHNAKTKPREEQYNSTYRVVSVLTVLHQDWLNGKEYKCAVSNKALPAPIEKTISKAKGQPREPQVYTLPPSRDELTKNQVSLSCAVKGFYPSDIAVEWESNGQPENNYKTTPPVLDSDGSFFLVSKLTVDKSRWQQGNVFSCSVMHEALHNHYTQKSLSLSPG
chain 2: B2 chain 2
notes: bi-miniGNC; D3 αCD3* (Fab), D5 αHER3 VHH
B4: SI-75X17 (other)
chain 1: EVQLQESGGGLVQAGDSLSLSCLVSGRSFNSYTMGWFRQAPGKEREFVAAILWSGPTTYYADSVKGRFTISRDNAKNTVYLQMNSLKPEDTAVYYCAAALGVLVLAPGNVYSYWGQGTQVTVSSGGGGSGGGGSQVQLQESGGRLVQPGEPLSLTCKTSGIDLSSNAIGWVRQAPGKGLEWIGVIFGSGNTYYASWAKGRFTISRSTSTVYLKMNSLRSEDTAIYYCARGGYSSDIWGQGTLVTVSSASTKGPSVFPLAPSSKSTSGGTAALGCLVKDYFPEPVTVSWNSGALTSGVHTFPAVLQSSGLYSLSSVVTVPSSSLGTQTYICNVNHKPSNTKVDKRVEPKSCDKTHTCPPCPAPEAAGGPSVFLFPPKPKDTLMISRTPEVTCVVVDVSHEDPEVKFNWYVDGVEVHNAKTKPREEQYNSTYRVVSVLTVLHQDWLNGKEYKCAVSNKALPAPIEKTISKAKGQPREPQVYTLPPSRDELTKNQVSLSCAVKGFYPSDIAVEWESNGQPENNYKTTPPVLDSDGSFFLVSKLTVDKSRWQQGNVFSCSVMHEALHNHYTQKSLSLSPG
chain 2: QVQLVQSGGGLVQAGGSLSLSCAFSGRTFSMYTMGWFRQAPGKEREFVAANRGRGLSPDIADSVNGRFTISRDNAKNTLYLQMDSLKPEDTAVYYCAADLQYGSSWPQRSSAEYDYWGQGTTVTVSSGGGGSGGGGSDPQLTQSPSSLSATVGQRVTINCQSSQSVAKNNNLAWFQQKPGKPPKLLIYSASTLAAGVPSRFSGSGSGTQFTLTITRVQSEDFATYYCSARDSGNIQSFGGGTRVEIKRTVAAPSVFIFPPSDEQLKSGTASVVCLLNNFYPREAKVQWKVDNALQSGNSQESVTEQDSKDSTYSLSSTLTLSKADYEKHKVYACEVTHQGLSSPVTKSFNRGECGGDKTHTCPPCPAPEAAGGPSVFLFPPKPKDTLMISRTPEVTCVVVDVSHEDPEVKFNWYVDGVEVHNAKTKPREEQYNSTYRVVSVLTVLHQDWLNGKEYKCAVSNKALPAPIEKTISKAKGQPREPQVYTLPPSRDELTKNQVSLWCLVKGFYPSDIAVEWESNGQPENNYKTTPPVLDSDGSFFLYSKLTVDKSRWQQGNVFSCSVMHEALHNRFTQKSLSLSPG
notes: tri-miniGNC; D1 αEGFR VHH, D2 αHER3 VHH, D3 αCD3* (Fab)

Experiments:
[1] = biological target: T1, human CD3 (human, UniProt P07766 23-126; P04234 22-105); assay: BLI (Octet), binder on AHC sensor, 100 nM human CD3, 1:1 fit
T1 construct: also called His-tagged human CD3; human CD3 (Acro CDD-H52W1)

[2] = biological target: T2, human HER3 (human, UniProt P21860 20-643); assay: BLI (Octet), binder on AHC sensor, 200 nM human HER3, 1:1 fit
T2 construct: Soluble antigen in Octet; bought; also called human HER3 (Acro ER3-H5223)

[3] = biological target: T3, human EGFR (human, UniProt P00533 25-645, limits assumed); assay: BLI (Octet), binder on AHC sensor, 200 nM human EGFR, 1:1 fit
T3 construct: Soluble antigen in Octet; construct not described

Binder | Kd [1] [nM] | Kd [2] [nM] | Kd [3] [nM]
B1 | 26.3 | 7.68 | 51.5
B2 | 64.4 | 10.5 | 20.6
B3 | 38.1 | 13.7 | –
B4 | 68 | 4.58 | 14.8
